These results are taken from PMC3684361.

The target of this test is TET2 catalytic domain (TET2CD: a.a. 916-1921), recombinant from Sf9. Briefly: pull-down.

B1: OGT, full-length, recombinant from Sf9 (enzyme)
chain: MASSVGNVADSTEPTKRMLSFQGLAELAHREYQAGDFEAAERHCMQLWRQEPDNTGVLLLLSSIHFQCRRLDRSAHFSTLAIKQNPLLAEAYSNLGNVYKERGQLQEAIEHYRHALRLKPDFIDGYINLAAALVAAGDMEGAVQAYVSALQYNPDLYCVRSDLGNLLKALGRLEEAKACYLKAIETQPNFAVAWSNLGCVFNAQGEIWLAIHHFEKAVTLDPNFLDAYINLGNVLKEARIFDRAVAAYLRALSLSPNHAVVHGNLACVYYEQGLIDLAIDTYRRAIELQPHFPDAYCNLANALKEKGSVAEAEDCYNTALRLCPTHADSLNNLANIKREQGNIEEAVRLYRKALEVFPEFAAAHSNLASVLQQQGKLQEALMHYKEAIRISPTFADAYSNMGNTLKEMQDVQGALQCYTRAIQINPAFADAHSNLASIHKDSGNIPEAIASYRTALKLKPDFPDAYCNLAHCLQIVCDWTDYDERMKKLVSIVADQLEKNRLPSVHPHHSMLYPLSHGFRKAIAERHGNLCLDKINVLHKPPYEHPKDLKLSDGRLRVGYVSSDFGNHPTSHLMQSIPGMHNPDKFEVFCYALSPDDGTNFRVKVMAEANHFIDLSQIPCNGKAADRIHQDGIHILVNMNGYTKGARNELFALRPAPIQAMWLGYPGTSGALFMDYIITDQETSPAEVAEQYSEKLAYMPHTFFIGDHANMFPHLKKKAVIDFKSNGHIYDNRIVLNGIDLKAFLDSLPDVKIVKMKCPDGGDNADSSNTALNMPVIPMNTIAEAVIEMINRGQIQITINGFSISNGLATTQINNKAATGEEVPRTIIVTTRSQYGLPEDAIVYCNFNQLYKIDPSTLQMWANILKRVPNSVLWLLRFPAVGEPNIQQYAQNMGLPQNRIIFSPVAPKEEHVRRGQLADVCLDTPLCNGHTTGMDVLWAGTPMVTMPGETLASRVAASQLTCLGCLELIAKNRQEYEDIAVKLGTDLEYLKKVRGKVWKQRISSPLFNTKQYTMELERLYLQMWEHYAAGNKPDHMIKPVEVTESA
With B1, the stoichiometry N was 1.

A word on the stoichiometry N: it is the number of molecules, sites or subunits per partner or assembly.
